Results: patent US20200291121A1 (JOINT STOCK COMPANY BIOCAD, published 2020)

T1: mouse IL-5Rα, recombinant extracellular domain (mouse, UniProt P21183 18-339)
T1 construct: extracellular domain; also called animal IL-5Rα
T1 sequence (looked up): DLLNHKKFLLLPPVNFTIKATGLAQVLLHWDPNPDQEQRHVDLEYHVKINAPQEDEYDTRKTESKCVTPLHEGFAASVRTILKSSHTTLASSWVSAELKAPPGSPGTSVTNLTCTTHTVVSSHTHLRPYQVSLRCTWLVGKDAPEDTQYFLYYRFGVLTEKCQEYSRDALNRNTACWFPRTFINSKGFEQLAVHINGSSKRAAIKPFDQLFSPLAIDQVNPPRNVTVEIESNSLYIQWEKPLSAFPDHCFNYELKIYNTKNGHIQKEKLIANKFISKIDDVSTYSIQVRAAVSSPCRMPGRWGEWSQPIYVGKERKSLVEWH

T2: cynomolgus monkey IL-5Rα, recombinant extracellular domain (cynomolgus monkey, UniProt C3VEW9 21-342)
T2 construct: extracellular domain; also called macaque IL-5Ra; cynomolgus monkey antigen (IL-5Rα)
T2 sequence: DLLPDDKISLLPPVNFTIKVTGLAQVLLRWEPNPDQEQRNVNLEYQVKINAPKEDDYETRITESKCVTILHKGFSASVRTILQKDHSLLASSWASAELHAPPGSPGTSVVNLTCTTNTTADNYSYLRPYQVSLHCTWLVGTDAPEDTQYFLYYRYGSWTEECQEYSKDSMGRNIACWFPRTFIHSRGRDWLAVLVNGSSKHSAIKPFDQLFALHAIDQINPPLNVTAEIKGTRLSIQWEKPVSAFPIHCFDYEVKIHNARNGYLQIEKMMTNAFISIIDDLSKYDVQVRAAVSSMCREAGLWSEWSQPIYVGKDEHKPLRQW

T3: human IL-5Rα (interleukin 5 receptor α-chain), recombinant extracellular domain (human, UniProt Q01344 21-342)
T3 construct: extracellular domain; also called IL-5Ra; human antigen; not shown: C-terminal tag (EPEA, Fc or H6F)
T3 sequence (looked up): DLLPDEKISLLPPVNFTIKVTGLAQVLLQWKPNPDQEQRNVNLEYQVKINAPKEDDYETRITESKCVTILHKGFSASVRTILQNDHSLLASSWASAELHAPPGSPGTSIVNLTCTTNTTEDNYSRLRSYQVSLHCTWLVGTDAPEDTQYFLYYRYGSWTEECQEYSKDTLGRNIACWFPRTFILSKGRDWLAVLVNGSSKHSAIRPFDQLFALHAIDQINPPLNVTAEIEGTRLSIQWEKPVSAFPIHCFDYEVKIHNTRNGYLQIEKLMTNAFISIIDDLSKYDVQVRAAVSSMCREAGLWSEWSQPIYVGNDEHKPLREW


Experiments:
[1] = biological target: IL-5Rα stably expressed on CHO-IL-5R cells; assay: cell-based or functional assay
IL-5Rα stably expressed on CHO-IL-5R cells, sequence (Q01344 whole entry): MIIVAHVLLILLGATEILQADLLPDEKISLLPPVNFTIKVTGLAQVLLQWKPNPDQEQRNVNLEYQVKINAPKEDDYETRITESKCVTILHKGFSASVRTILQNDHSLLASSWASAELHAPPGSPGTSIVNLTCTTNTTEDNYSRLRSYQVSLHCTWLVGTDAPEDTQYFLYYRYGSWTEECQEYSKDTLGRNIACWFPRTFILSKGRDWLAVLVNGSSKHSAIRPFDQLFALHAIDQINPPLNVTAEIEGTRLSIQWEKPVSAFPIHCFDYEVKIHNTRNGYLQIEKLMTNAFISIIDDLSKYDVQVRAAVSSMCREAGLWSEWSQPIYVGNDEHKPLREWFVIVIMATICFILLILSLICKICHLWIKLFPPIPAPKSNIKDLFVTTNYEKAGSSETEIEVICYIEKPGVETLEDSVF

[2] = biological target: T1, mouse IL-5Rα, recombinant extracellular …; assay: BLI (Octet RED 384), antibody immobilised on AR2G sensors, antigen in solution
[3] = biological target: T2, cynomolgus monkey IL-5Rα, recombinant …; assay: BLI (Octet RED 384), antibody immobilised on AR2G sensors, cynomolgus IL-5Rα in solution, 30 °C, 1:1 global model
Description: (§1) Experimental study of binding affinity of antibodies to animal IL-5Rα antigen was performed on Forte Bio Octert RED 384. Antibodies at a concentration of 20 μg/ml were immobilized on the surface of AR2G sensors (Forte Bio) according to a standard protocol and manufacturer's instructions. Analysis was conducted at 30° C. using PBS comprising 0.1% Tween 20 and 0.1% BSA as a working buffer. After baseline recording, the sensors were immersed into wells containing antigen solution (animal IL-5Rα) for 300 seconds, where the complex was associated. Complex dissociation in buffer solution was then detected for 600 seconds.
(§2) Binding curves, after subtracting a reference signal, were analyzed using Octet Data Analysis (Version 9.0) software in accordance with the standard procedure and using 1:1 Global interaction model. Anti-IL-5Rα antibodies specifically bind to cynomolgus monkey antigen. Table B. FIG. 16,17,18.

[4] = biological target: T3, human IL-5Rα (interleukin 5 receptor …); assay: BLI (Octet RED 384), human IL-5Rα immobilised on AR2G sensors, full-length antibody in solution, 30 °C, 1:1 global model
Description: as §1, with “to human” for “to animal”, “384. Human IL-5Rα” for “384. Antibodies”, “μg/ml was” for “μg/ml were”, “sensors (ForteBio)” for “sensors (Forte Bio)”, “containing antibody” for “containing antigen”, “solution” for “solution (animal IL-5Rα)”
as §2, with “human antigen with high affinity.” for “cynomolgus monkey antigen.”, “A (FIG. 11, 12, 13)” for “B. FIG. 16,17,18.”

ADCC efficacy (EC50) on CHO-IL-5R cells with PBMC, relative to Benralizumab [1] | binding result [2] | Kd [3] | Kd [4] | Binder
1.6 times (against Benralizumab) | no binding | 12.2 nM | 0.667 nM | BCD133-03-020 (antibody, human IgG1, kappa) heavy: not shown light: QAGLTQPPSVSAAPGQRVTISCSGSRSNIGSGYDVHWYQQVPGTAPKLLIFDDNNRPSGVPDRFSGSKSGTSASLAITGLQAEDEADYYCQSYDSSLSGHVVFGGGTKLTVLRTVAAPSVFIFPPSDEQLKSGTASVVCLLNNFYPREAKVQWKVDNALQSGNSQESVTEQDSKDSTYSLSSTLTLSKADYEKHKVYACEVTHQGLSSPVTKSFNRGEC
1.6 times (against Benralizumab) | no binding | 16.8 nM | 0.0224 nM | BCD133-03-021 (antibody, human IgG1, kappa, V domains shown) VH: QVQLQESGGGLVQPGGSLRLSCAASGFTFSNYAMSWVRQAPGKGLEWVSAINSGGKSTNYADSVKGRFTISRDNAKNTLYLQMNSLRAEDTAVYYCADYATNYGVPYFGSWGQGTMVTVSS VL: QSVLTQPPSVSAAPGQRVTISCSGSRSNIGSGYDVHWYQQLPGTAPKLLIYDDNNRPSGVPDRFSGSKSGTSASLAITGLQAEDEADYYCQSYDSSLSGHVVFGGGTKLTVLR
1.6 times (against Benralizumab) | no binding | 5.53 nM | 0.527 nM | BCD133-03-002 (antibody, human IgG1, kappa) heavy: not shown light: QAGLTQPPSVSAAPGQRVTISCSGSRSNIGSGYDVHWYQQVPGTAPKLLIFDDNNRPSGVPDRFSGSKSGTSASLAITGLQAEDEADYYCQSYDSSLSGHVVFGGGTKLTVLRTVAAPSVFIFPPSDEQLKSGTASVVCLLNNFYPREAKVQWKVDNALQSGNSQESVTEQDSKDSTYSLSSTLTLSKADYEKHKVYACEVTHQGLSSPVTKSFNRGEC
